Tests used:
[1] = target: T1, SloR (Streptococcus mutans UA159?) (UniProt I6L923); experiment: footprinting; settings: BLI: PBS pH 7.2, 0.1% Tween-20, 100 uM MnCl2, 30 C; EMSA: 60-200 nM SloR, 16 uL, 12% native gel, buffer as cited; footprinting: 8.4 mM NaH2PO4, 11.6 mM …
T1 sequence: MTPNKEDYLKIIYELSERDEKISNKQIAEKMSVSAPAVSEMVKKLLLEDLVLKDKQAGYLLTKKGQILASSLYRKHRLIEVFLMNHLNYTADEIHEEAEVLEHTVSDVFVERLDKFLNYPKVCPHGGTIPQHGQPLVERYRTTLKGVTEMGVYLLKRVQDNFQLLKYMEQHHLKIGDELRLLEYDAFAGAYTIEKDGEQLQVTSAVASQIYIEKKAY

[2] = target: T1, SloR (Streptococcus mutans UA159?); experiment: EMSA; settings: BLI: PBS pH 7.2, 0.1% Tween-20, 100 uM MnCl2, 30 C; EMSA: 60-200 nM SloR, 16 uL, 12% native gel, buffer as cited; footprinting: 8.4 mM NaH2PO4, 11.6 mM …
SloR (BLI preparation) [3] = target: T2, SloR (BLI preparation) (UniProt I6L923 1-217); experiment: BLI; 100 uM MnCl2; DNA up to 20 uM; BLI: PBS pH 7.2, 0.1% Tween-20, 100 uM MnCl2, 30 C; EMSA: 60-200 nM SloR, 16 uL, 12% native gel, buffer as cited; footprinting: 8.4 mM NaH2PO4, 11.6 mM Na2HPO4, 50 mM NaCl, 5 mM MgCl2, 10 ug/mL BSA, 200 ug/mL salmon sperm DNA, 7.5 uM MnCl2, 30 C; settings: protein: recombinant; tags: immobilized on NTA biosensor; chain copies: 2; blunt
T2 sequence: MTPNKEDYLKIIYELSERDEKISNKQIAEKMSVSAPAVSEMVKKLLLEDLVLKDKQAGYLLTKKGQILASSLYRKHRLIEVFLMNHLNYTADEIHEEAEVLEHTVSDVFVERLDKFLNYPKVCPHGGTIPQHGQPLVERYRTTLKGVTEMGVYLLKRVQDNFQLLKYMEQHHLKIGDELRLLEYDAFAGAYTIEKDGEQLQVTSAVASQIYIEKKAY

SloR [4] = target: T3, SloR (UniProt I6L923 1-217); experiment: EMSA; 60 nM SloR; two band shifts, intensity 1.3 and 0.03 AU; BLI: PBS pH 7.2, 0.1% Tween-20, 100 uM MnCl2, 30 C; EMSA: 60-200 nM SloR, 16 uL, 12% native gel, buffer as cited; footprinting: 8.4 mM NaH2PO4, 11.6 mM Na2HPO4, 50 mM NaCl, 5 mM MgCl2, 10 ug/mL BSA, 200 ug/mL salmon sperm DNA, 7.5 uM MnCl2, 30 C; settings: protein: recombinant; tags: native (untagged) SloR purified for EMSA and footprinting; chain copies: 2; label: 5' 32P; blunt
T3 sequence: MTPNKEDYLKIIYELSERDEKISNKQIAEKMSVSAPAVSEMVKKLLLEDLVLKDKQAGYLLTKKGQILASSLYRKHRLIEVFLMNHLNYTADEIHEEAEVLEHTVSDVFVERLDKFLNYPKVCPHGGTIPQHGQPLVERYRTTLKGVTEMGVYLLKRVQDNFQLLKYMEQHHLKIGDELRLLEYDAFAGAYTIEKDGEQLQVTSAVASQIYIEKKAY

SloR [5] = target: T3, SloR; experiment: EMSA; 60 nM SloR; BLI: PBS pH 7.2, 0.1% Tween-20, 100 uM MnCl2, 30 C; EMSA: 60-200 nM SloR, 16 uL, 12% native gel, buffer as cited; footprinting: 8.4 mM NaH2PO4, 11.6 mM Na2HPO4, 50 mM NaCl, 5 mM MgCl2, 10 ug/mL BSA, 200 ug/mL salmon sperm DNA, 7.5 uM MnCl2, 30 C; settings: protein: recombinant, tags: native (untagged) SloR purified for EMSA and footprinting, chain copies: 2, blunt
SloR [6] = target: T3, SloR; experiment: EMSA; BLI: PBS pH 7.2, 0.1% Tween-20, 100 uM MnCl2, 30 C; EMSA: 60-200 nM SloR, 16 uL, 12% native gel, buffer as cited; footprinting: 8.4 mM NaH2PO4, 11.6 mM Na2HPO4, 50 mM NaCl, 5 mM MgCl2, 10 ug/mL BSA, 200 ug/mL salmon sperm DNA, 7.5 uM MnCl2, 30 C; settings: protein: recombinant; tags: native (untagged) SloR purified for EMSA and footprinting; chain copies: 2; label: 5' 32P; blunt
SloR (BLI preparation) [7] = target: T2, SloR (BLI preparation); experiment: BLI; 100 uM MnCl2; BLI: PBS pH 7.2, 0.1% Tween-20, 100 uM MnCl2, 30 C; EMSA: 60-200 nM SloR, 16 uL, 12% native gel, buffer as cited; footprinting: 8.4 mM NaH2PO4, 11.6 mM Na2HPO4, 50 mM NaCl, 5 mM MgCl2, 10 ug/mL BSA, 200 ug/mL salmon sperm DNA, 7.5 uM MnCl2, 30 C; settings: protein: recombinant; tags: immobilized on NTA biosensor; chain copies: 2; blunt
SloR (BLI preparation) [8] = target: T2, SloR (BLI preparation); experiment: BLI; 100 uM MnCl2; Kd only in figure; BLI: PBS pH 7.2, 0.1% Tween-20, 100 uM MnCl2, 30 C; EMSA: 60-200 nM SloR, 16 uL, 12% native gel, buffer as cited; footprinting: 8.4 mM NaH2PO4, 11.6 mM Na2HPO4, 50 mM NaCl, 5 mM MgCl2, 10 ug/mL BSA, 200 ug/mL salmon sperm DNA, 7.5 uM MnCl2, 30 C; settings: protein: recombinant; tags: immobilized on NTA biosensor; chain copies: 2; label: 5' 32P in EMSA; blunt

## GATTGTTTAGACATCTCTGATTAATTTTCCATAATCTCTATTGTGTTTTATACTGTCAGTAATTCTTACAAACTCTTTATATTCAGTAATAATAGGTACACCTTTTTTAATTTTTAAGCATACTTAACATATGCTGTTTTTTATGCTATAATGCAATTAACCCAATTATATTAGAAAAGAGATTTTCAAAATGAAAACTCATCCAAAAAAGCAATCACTCAGCGAGGTCAATCAGAGCGTTCGTGTTCCTAAAAATGCCTCTTTTTTAACAACTTTAAGAGCTTTTTTAGG (double strand) [mntH 291-bp footprint amplicon]
[1]
  binding: binds

## GCATACTTAACATATGCTGTTTTTTATGCTATAATGCAATTAACCCAATTATATTAGAAAAGAGATTTTCAAAATGAAAACTCATCCAAAAAAGCAATCACTCAGCGAGGT (double strand) [mntH 111-bp probe (-75 to +36 of coding)]
[2]
  binding: no binding

B1: mntH.22.SRE2.WT (dsDNA)
DNA 1: AATAATAGGTACACCTTTTTTA
DNA 2: TAAAAAAGGTGTACCTATTATT
SloR (BLI preparation) [3]
  binding result: no binding

B2: mntH.100.WT (dsDNA)
DNA 1: TACTGTCAGTAATTCTTACAAACTCTTTATATTCAGTAATAATAGGTACACCTTTTTTAATTTTTAAGCATACTTAACATATGCTGTTTTTTATGCTATA
DNA 2: TATAGCATAAAAAACAGCATATGTTAAGTATGCTTAAAAATTAAAAAAGGTGTACCTATTATTACTGAATATAAAGAGTTTGTAAGAATTACTGACAGTA
SloR [4]
  binding result: binds

B3: mntH.100.CC.CT (SRE1+SRE2 mutant) (dsDNA)
DNA 1: TACTGTCAGTAATTCTTACAAACTCTTTATATTCAGTAATAATCTGTACACCTTTTTTAATTTTTCCGCATACTTAACATATGCTGTTTTTTATGCTATA
DNA 2: TATAGCATAAAAAACAGCATATGTTAAGTATGCGGAAAAATTAAAAAAGGTGTACAGATTATTACTGAATATAAAGAGTTTGTAAGAATTACTGACAGTA
SloR [5]; label: 5' 32P
  binding result: no binding

B4: mntH 100-bp deletion amplicon (dsDNA)
DNA 1: AGGTACACCTTTTTTAATTTTTAAGCATACTTAACATATGCTGTTTTTTATGCTATAATGCAATTAACCCAATTATATTAGAAAAGAGATTTTCAAAATG
DNA 2: CATTTTGAAAATCTCTTTTCTAATATAATTGGGTTAATTGCATTATAGCATAAAAAACAGCATATGTTAAGTATGCTTAAAAATTAAAAAAGGTGTACCT
SloR [6]
  binding result: binds

B5: sloA.72.WT (dsDNA)
DNA 1: AGCCTTAATTAATGTAGATTATATTTTTAATTGAACTGAATTAAAAATATAATCCAATATAATGAATATTTT
DNA 2: AAAATATTCATTATATTGGATTATATTTTTAATTCAGTTCAATTAAAAATATAATCTACATTAATTAAGGCT
SloR (BLI preparation) [7]
  Kd: ~31 nM

B6: mntH.22.SRE1.CC (left IR mutant) (dsDNA)
DNA 1: ATTTTTCCGCATACTTAACATA
DNA 2: TATGTTAAGTATGCGGAAAAAT
SloR [6]
  binding result: no binding

B7: mntH.22.SRE1.WT (dsDNA)
DNA 1: ATTTTTAAGCATACTTAACATA
DNA 2: TATGTTAAGTATGCTTAAAAAT
SloR [5]; label: 5' 32P in EMSA
  binding result: binds
SloR (BLI preparation) [8]
  binding result: binds

B8: mntH.22.SRE1.w10.spcr (spacer variant) (dsDNA)
DNA 1: ATTTTTAACCCAATTTAACATA
DNA 2: TATGTTAAATTGGGTTAAAAAT
SloR [6]
  binding result: no binding

B9: mntH 159-bp promoter probe (dsDNA)
DNA 1: TCTCTATTGTGTTTTATACTGTCAGTAATTCTTACAAACTCTTTATATTCAGTAATAATAGGTACACCTTTTTTAATTTTTAAGCATACTTAACATATGCTGTTTTTTATGCTATAATGCAATTAACCCAATTATATTAGAAAAGAGATTTTCAAAATG
DNA 2: CATTTTGAAAATCTCTTTTCTAATATAATTGGGTTAATTGCATTATAGCATAAAAAACAGCATATGTTAAGTATGCTTAAAAATTAAAAAAGGTGTACCTATTATTACTGAATATAAAGAGTTTGTAAGAATTACTGACAGTATAAAACACAATAGAGA
SloR [6]
  binding result: binds

B10: mntH.90.WT (dsDNA)
DNA 1: GTAATTCTTACAAACTCTTTATATTCAGTAATAATAGGTACACCTTTTTTAATTTTTAAGCATACTTAACATATGCTGTTTTTTATGCTA
DNA 2: TAGCATAAAAAACAGCATATGTTAAGTATGCTTAAAAATTAAAAAAGGTGTACCTATTATTACTGAATATAAAGAGTTTGTAAGAATTAC
SloR (BLI preparation) [7]
  Kd: ~33 nM

B11: mntH.22.SRE1.10IR (SRE1 spacer with -10 SRE IRs) (dsDNA)
DNA 1: GCAATTAAGCATACTATATTAG
DNA 2: CTAATATAGTATGCTTAATTGC
SloR [6]
  binding result: no binding

Source: paper PMC12096823, “SloR-SRE binding to the S. mutans mntH promoter is cooperative”
